In the domain aggregation screens of Martell et al. (2025):

Test: soluble fraction after stress (log2 fold change); higher = more stays soluble; pooled small domains, quantitative proteomics
Conditions: stress: 50 degC
In short: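 The measure of aggregation propensity here is the base-two logarithm of the fold change in the soluble amount of each protein after stress. A higher value means more of that protein stays in solution. Stress was applied at 50°C to pooled libraries of small protein domains, read out by high-throughput quantitative proteomics.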

Sequence	soluble fraction (log2)
HMLDLNEVEFYAIENQLKENLKIDSKRFYELVPLIKGYQEDDIIQVLRWLIDNNRIIRHKDESLTWHS	-1.61
HMLIPTISVTKEGQLRFENIPVSWEELGTRLRDVSDLDKIKIYADAESDALTISEIMKTAANVGIVQFVLV	-0.578
HMALPQPDDDRQDTKKRILDMAEDLLLTRGFNAFSYQHISSELGMKNAAIHYHYPKKNDLGVAVIQRYRRR	0.151
HMEGVSSESVKEMLKSIIDGEDPHNPVSDQRITDILNSRGINISRRTVAKYRDELGIASSSRRKRY	0.0818
HMGSLRSALDGIPGIGEQYQKRLLAQFGSVKAMRSASVEDFEAVRGIGRAKAQALYDALHAG	-0.131
HMQVVVEKSKEKVIISGNQYYIHIVKKGETAFSIAKAYGITVDELVKNNPSAATVLKEGQALRIPVVE	0.119
HMAAFGDLLSELRRDMNMTQDELAKVLFVSPGTISNYENNIHFPDVPKLKQIAQYFGVTTDYLLG	-0.405
HMTDLQNDIQAFNLKKMSYQHETKKLEEKRNPEKLEKLEQDIQALYLRIMENPNMRAFDSAKQALYLQIM	-0.773
HMDTSISHLVGRTGEAVTDLRPAGTVMIDGELYDARATEGFIEKGEIVKAIKYQYGQLNVRRVSK	0.0877
HMYSIKEFSFEVTTPGQRLDLFLSEELIGQTRSSIQNLILKKYVTVNGQVSKASYKVKTGEFISVKIPV	-3.16
HMPVFSLTPRELEILEWMSTPNTYRQIAAQLSVSEETVRSHAKNILEKMRQPNRAQAVLAAVKMGLIKL	-0.819
HMTETIPVSERLFRYLFEEKGKRVQKIQQTSHARVRMERSPYSVVVSGTKDAVEAAMESLKATEKELLEA	0.15
HMVMVVDVLKALSNNSSDKFFNTSISNAIKAQEDSQEDFVTLFGIEYEKLSPNNGLAVIFTSQ	0.425
HMTISGSDLKAQREALNIPLERIAKETRIRLSILQDLEDEEYSELSSSAQTKGFLRLYADYLSSHKQRLG	-0.415
HMKSLPQKLLAYLESQGLTRDEAGEFVKQGLKITSNDVDQIQLLLANTEVIDIKLQEFIAQK	0.217
HMLMRSPDFLIGWFQNLVAKRETFNDQVQAKNLIEAGKQHIQGEDFDRLLEVNRRLFSLLPQREQE	0.215
HMSKRDDLLDQASEWLAKLDRDLTVVEERELKAWLGESAAHRETFIQMAKLWDKMESLSRLTDL	-0.397
HMSSNLSLHKEGNKIVILGLEGKSVIEVYDLMGRLLSSQTNYNPKQEITLLQPVIIRVTDTQQTKSFKV	-0.83
HMITMADKIDTALSEMAANNEKINVSQVAKRLGISNSAIYKFNPEKIPDIQTAQKRQKHKAEAIAVGTEN	0.215
HMEHETTQLELNAPGQRLDAALALALPDTSRAQIQQWIKQGLVTDQAGTALLQASLKLKSPLNVVLQRPI	0.178
HMISTVFYVDVKGEVHHPGVYQMKAENRVKDLIEAAGGFTPLADDQKLNLAQLLEDQMVIVVPKKGEEV	0.278
HMTVSIGSVIARERRLRGDTQQELAERLGVSKAAVSKWEVGQSIPDVTLLPRIAAYFSLTLDEL	-2.18
HMRTTTGSEGMIGSIGKAKTDLAPDGKIFIHGELWDATSSSPVSAGQKIEVTQIEGLKLHVKPVL	0.268
HMHMELHEKIRLARELNKWSQEEVAEKLEMSPSGYAKIERGETALNIPRLEQIAEIFNIDIWELVKA	-0.573
HMLLPANLTKSQRNIAERVARGQSNLEIAADLNITERTVKAHLTSIYEKTKTGNRLNLALLINLG	-0.442

Sequence	soluble fraction (log2)
HMTQQYVEWKVYNVTTIKNKYGFRVKLIFQDGSDATQQKGGFTSKKAAEQARTEVIGQLYSNTYVVY	-4.49
HMGGYVVVGDKDGFWSVVSTPVSKAKAEELLKDTTFPKGEKGKIVSVAEAMSHKKVIGKEYLESGGT	0.117
HMKSIEVPNLINMTLRKAKIELIDNEFNLDTVIYEYNPNIREGRVSLQIPESGTILKSGSNISIHISKGIP	-1.53
HMESVDRIYERVRRYADDVGTAKIPMKELDDDGPLGTAVSRIRERRKRGELTEEWEARFETLPGWTWAA	0.0038
HMDTPMQEAVLQRLRDKVAQAAAGSKLPTVRQLIADYGVGQHVIQAALEKLRTEGLITSHVGKGTFVG	0.447
HMTPQVTVPDVTGQSFASAKQVLESLGLTVKQQGSTGENDKVIGQNPTSGNADKGATITLTTQDS	0.343
HMAPEVTVHDGSIVVRGHVGGVTVYDESGRQIASVQSRGAVAIPVPAGHTYLYIVKPEGKPAIKVRAAH	0.0927
HMGGEHPIPEDWAVNEANYEHGAKFYGYTRAHVDAEAQAFRDQYAANGKKYVDWDAHFRTFMRWQNERRYG	-0.111
HMQNYNLTQQEKKVLQLLVSGKSYKMIAAELNVAFDTVKSHITNIYSKLHVHSGTEAVSVAIRDKI	-0.444
HMYAPKIETIQVPQDKIREVIGTGGKVIREIVETTGAKIDIGDTGLIKVASSDGEAIRAALDWINSIVAE	0.117
HMEGYLYLSESQNELILKNLKTPLKYNLYNASGKLIKKGNIKNTLDISELPKGVYIFTSSDNSFSKKFLKT	-0.0444
HMDATGDPIADRILQALQLGELTRTQVNNVFQRHLAAARISQALNFLRSLKRADMRMEETAGRSGEVWFAI	-0.341
HMAPDNDELEKAKKIVNAFIEAKAKGLGVVSLGTKMIDAPVVKRAQKIIDQTIVMGKLSLNWQDEFFN	-0.0351
HMGKTRSTDRTRRAILDAASDLMGKHGTSVSLARIAEAAGMSKGGLLHHFPSRNDLIRALGED	0.189
HMKKAENEKLNIPYDVTEFLASSIKDDIRMMEGAMVKLLALSSLTKQDITQSLAKRVIQDVLGSSA	-0.097
HMDLKHNQITMRELLRNKQAYLLLYKEFPMFMTPAILQNIRPLTLQQIIQMVRPYISRPKLNMLLEQLENI	-0.124
HMERAPAYPDGLTQREVEVLRLIASGKTDREIAEELFIGVRTVSTHVGNILNKTNSANRTEAASYANQQGL	-0.191
HMQISDESSIAKIADEVISEFPSQVSEFRSGKEKVLQFLIGQVMKKTKGKANPQITAKILREKLS	0.119
HMILSTNFFRHIVPKEYQTSYGTMKKWLTDHNVIGTNSIPQGIGYRIPTQGLSSTFSFKVVDVLPDR	-0.525
HMLSPAQSLLLRTAARRPDGRVIPPDTLRGGARVKVLTSLLQRGWIEPVDGGHVLTDAGYAAIG	-0.353
HMSLIDYLNELMNEKNITVAQVAKNSGIGEYVYKIFNGERNAKRDTLVAISFGMHLNFEETQLLLRIA	-0.682
HMALWFDEWKKYQDTIASADLLPDKAERDALIAQAEDRFNYWMDIYPRSASLNHSFDDLYEEHRRKIE	-0.75
HMLDEKFLSELMLALLRNHRRGLRAEVLLHKVRSNMELDGYKSLLVGVGRMEMWELAREIIDFVKAEG	-4.4
HMAKRTVPSVAEAIDNFRRQHRRMPSYAEMLPLLGVRSKSVVHFWINKLLENGLLEKDDKGYLTPGS	-0.00958
HMNVNSQQINDLEKSIQKFFDKDIKNYLNQNLSNDRMISKNEIDKIILLYYGSDKEPTLDEIKSIFN	-0.0913

Sequence	soluble fraction (log2)
HMERYLLRDNIPNALHGERLDRVIAIMTGLSRSAVSALIKSNQVLRNGQIAQSISEKVVEGDELEVHLEP	-0.0223
HMGSLGRAIRSRREKMKVGLEELAAKTGLSESHISDIEEGRGFAPVGDILKIARALTIDPGELLK	0.361
HMNGKWKLRIIKELLHSNIRFGQILKNIPDISPKVLSQQLKEMEEDGIIERIVISEMPPNVEYVLTDMGE	-0.789
HMDEALLRATLLDVLVKHHPKIGDKLDVVFALAKAWVSSGSDDDFEVLEKYMERLKPDEALMLASGFSNML	-0.972
HMKPVYNKVEIPRGGEYALVLSDGTKVHLNSMSSLRFPVAFTTGKREVELQGEAYFEVSKTGQPFIVNV	-0.0523
HMKMPNGYGSVYKLSGNRRKPWAARVTDGWVNDTKTKKSKQKYKFIGFYETRKEALLALADYNANP	-1.43
HMTEEDVVIFSGLSDRDLKMVQTELANSGIKYTLPTSGTVSVPNSEIARAQMVLAMAGIPRS	0.167
HMDKLFNRQTLGGVELTQKQIEDLNAGKAIFVEGMQRKDGEVFSSYVKLDEATGRPSYTRYNPDSP	0.441
HMELPADLATVLSVDDIRAIALAEVPGSTITGVELEREEGVLVYKVKFNDGSYKLYDANTGELV	0.174
HMGSKQVSVPDVRNLDYERASQQLREAGFVVGDVLRIRDDRAPAGTVIAQSPAAPALVPENARVSLLVSSG	0.251
HMFSQDQIFLRSGEKIDARVIEVTPEFIKYKSKANPEGPLYSKKITDVLLITYANGTTEVYE	-0.00684
HMQKIYTIARGDTLSHIVAGTLKQQGIAYTTGELYRLVNVVAQYNDILNPNRIYTGHQLDLTPLYSED	-0.103
HMTNVNSLIGKKAIVIQDIDNLKSTGQVKIGGEIWSAQSESNDIISKDTEVEIVKIDGVKLIVRLVPV	0.1
HMAKIDSRKALIDQLTTTFTRAQLEELITKNELSTDARFFLSQWNAKGWIRKTAKNVYEKLR	-0.134
HMELGWYVRLRRRELGLSVTALAEKAGMSQSYLSQIETGDRGNPSPESLRSLAEALEVSPRELESLV	-0.331
HMPGRKKLAIIYKNDYIGAFNLADSYRDSYEVSMYAFPKKVGKLLNRLELQGFNAYVIYDKDNEENNFNTI	-1.65
HMPDITAAVARTLQALRADRGWSLDQLAARSGVSKGVLVALEQGRSNPNLATLARIGDAFGVPVTLLVDL	-0.543
HMTKAILTANDVRNGDIVFWTADQRWSTSIDDAAIGYGKDDTDQLADAGKQAEAANTVVGAYLIALR	-0.276
HMRTAELEVWDDDELNDVVKLIQNNHNINTLKLRFQENVSFSGLSLIAAVLTKQSIILEIEY	0.0488
HMYSMSAPMPGVILEIKVAPGDQVNKGDVVMVLEAMKMKNDLHAARTGTVESIDINSGEQVKYGQVLLRFV	-0.14
HMGFSERLAQAMSHAGYTQGGLAKAVGMAQSSVNKLLNNANSSRKTVEIASVLGVRPEWLSTGEGDML	0.00207
HMDNPYEVFIPNSYIGQRLDQTLASLFPQFSRSRLQNWLASGNLLVNGKIVKPKTKILGGEQINILDPYN	-0.339
HMGYGEQEQEAQKYLALHALMSQDPTLAKMYQAPNQYKLMSHVMEQNGIKNVNDYLTDPQQLP	-0.00068
HMIFDPTTLPEKQLLVYGIISSHPGLNAKQISEMLTLKKSSIETAIKGLRKKEIIEYEGTTRNGG	-0.182
HMKKSIRIFELMKAKVAAEIFDQMILEGKIEDVFDIIVRLKDSNVSNIMKTMSVENSSRLVQKLERYNKD	-2.18
